This data set has as its system Saccharomyces cerevisiae. Briefly: protein stability index of tFT-peptide fusion (C-terminal peptide) (PSI (0-1 scale)); higher = more stable (slower turnover). The note with it: temperature: 30 C. The method, then: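 MPS profiling in S. cerevisiae of the yeast C-terminome library: the last 12 aa of each annotated ORF are fused to the C-terminus of a sfGFP-mCherry timer, after a GGGS linker. Cells are FACS-sorted into 8 mCherry/sfGFP bins and deep-sequenced. PSI runs from 0 (unstable) to 1 (stable); wild type and das1Δ backgrounds, two technical replicates each.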

[1] abbreviates: genetic background: das1 deletion.

± gives the standard deviation of the averaged measurements.

Take AAANILFSDHAD [RAD23 C-terminal 12 aa]: the protein stability index is 0.739 ± 0.032 under setting [1] and 0.733 ± 0.032 (genetic background: wild type).
Regarding AAGVGSVHGINR [COY1 C-terminal 12 aa], the protein stability index turned out to be 0.7 ± 0.03 under setting [1] and 0.6645 ± 0.0066 (genetic background: wild type).
Regarding AAISFKEAPRSD [ANB1 C-terminal 12 aa], the protein stability index was determined as 0.723 ± 0.037 under setting [1] and 0.694 ± 0.036 (genetic background: wild type).
AARPCLEGSVAP [YOR050C C-terminal 12 aa] returned a protein stability index under setting [1] of 0.686 ± 0.01 and a protein stability index (genetic background: wild type) of 0.6795 ± 0.0067.
Turning to ADETVDFYVYDE [SWD2 C-terminal 12 aa], the protein stability index runs as follows: under setting [1], 0.744 ± 0.027; (genetic background: wild type) 0.698 ± 0.06.
With AEFLGSFDELVL [EEB1 C-terminal 12 aa], the protein stability index runs as follows: under setting [1], 0.72333 ± 5e-06; (genetic background: wild type) 0.719 ± 0.018.
In the same order, the values of AEIISVRQVDQS [GIT1 C-terminal 12 aa] are 0.673 ± 0.017 and 0.705 ± 0.051.
The corresponding values for AESDDKSDNYGA [PRP45 C-terminal 12 aa] are 0.689 ± 0.032 and 0.717 ± 0.036.
Take AETLLSQRSRDR [DNF2 C-terminal 12 aa]: the protein stability index is 0.721 ± 0.028 under setting [1] and 0.692 ± 0.048 (genetic background: wild type).
The corresponding values for AGFGCLDSIILY [GSH2 C-terminal 12 aa] are 0.7068 ± 0.0036 and 0.732 ± 0.038.
The corresponding values for AHRENIAFPPQF [YHR033W C-terminal 12 aa] are 0.739 ± 0.0092 and 0.744 ± 0.067.
The corresponding values for AIDTLLKMSSSD [SRL3 C-terminal 12 aa] are 0.703 ± 0.03 and 0.674 ± 0.051.
Consider AIFLFLVGLFMK [UBC6 C-terminal 12 aa], for which the protein stability index is, setting by setting: under setting [1], 0.289 ± 0.011; (genetic background: wild type) 0.297 ± 0.017.
The corresponding values for AKAGSTPKFRTE [YNL050C C-terminal 12 aa] are 0.6897 ± 0.0035 and 0.6555 ± 0.0053.
The corresponding values for AKDFLEKRGISK [PAM18 C-terminal 12 aa] are 0.711 ± 0.0047 and 0.705 ± 0.023.
The corresponding values for AKFDGHAKTCHI [YBR051W C-terminal 12 aa] are 0.717 ± 0.021 and 0.70733 ± 5e-06.
Turning to AKKTNKLALTHV [SEC26 C-terminal 12 aa], the protein stability index by setting is: under setting [1], 0.7167 ± 0.0064; (genetic background: wild type) 0.718 ± 0.038.
The corresponding values for “ALAFSKIPSVFL [YMR153C-A C-terminal 12 aa]” are 0.722 ± 0.035 and 0.687 ± 0.0091.
The corresponding values for ALDKYLIEIHHW [NPR3 C-terminal 12 aa] are 0.718 ± 0.041 and 0.728 ± 0.013.
The corresponding values for ALGRKTSNGGRI [MKS1 C-terminal 12 aa] are 0.7161 ± 0.004 and 0.724 ± 0.049.
With AMSARKLSAARK [PCH2 C-terminal 12 aa], the protein stability index worked out at 0.677 ± 0.015 under setting [1] and 0.666 ± 0.025 (genetic background: wild type).
In the same order, the values of ANLVYMKADVFC [HTD2 C-terminal 12 aa] are 0.581 ± 0.012 and 0.61 ± 0.066.
In the same order, the values of ANTDKNNNPPGN [SNG1 C-terminal 12 aa] are 0.698 ± 0.016 and 0.751 ± 0.07.
Regarding APHVLNDLLLKF [PGA1 C-terminal 12 aa], the protein stability index is 0.7108 ± 0.0037 under setting [1] and 0.666 ± 0.017 (genetic background: wild type).
As for APRKEILACSDL [YOR392W C-terminal 12 aa], the protein stability index worked out at 0.718 ± 0.029 under setting [1] and 0.665 ± 0.04 (genetic background: wild type).
In the same order, the values of AQAEVIRGLQSL [CAP2 C-terminal 12 aa] are 0.682 ± 0.023 and 0.672 ± 0.03.
The corresponding values for AQFKEYLYQNDF [HAM1 C-terminal 12 aa] are 0.704 ± 0.01 and 0.697 ± 0.022.
In the same order, the values of AQGEKDAAATAN [TOM22 C-terminal 12 aa] are 0.677 ± 0.019 and 0.6591 ± 0.0032.
Consider ARKFWTEDNNNL [STE2 C-terminal 12 aa], for which the protein stability index runs as follows: under setting [1], 0.72 ± 0.023; (genetic background: wild type) 0.691 ± 0.039.
In the same order, the values of ARLVSNEPILLD [CWC23 C-terminal 12 aa] are 0.725 ± 0.026 and 0.704 ± 0.053.
For the sequence ARTALKRLIDDQ [MSA1 C-terminal 12 aa], the protein stability index was determined as 0.692 ± 0.023 under setting [1] and 0.698 ± 0.025 (genetic background: wild type).
For ARTKRLVQFEAR [RPC10 C-terminal 12 aa], the protein stability index under setting [1] worked out at 0.6826 ± 0.0044 and the protein stability index (genetic background: wild type) is 0.7169 ± 0.007.
Take ASVRIFLYPSNI [RPL33A C-terminal 12 aa]: the protein stability index under setting [1] turned out to be 0.7 ± 0.013 and the protein stability index (genetic background: wild type) was 0.697 ± 0.017.
The corresponding values for ATAKEWTKKYAV [UBC5 C-terminal 12 aa] are 0.7 ± 0.018 and 0.729 ± 0.045.
Turning to ATRKALETARSA [MRPL13 C-terminal 12 aa], the protein stability index reads like this: under setting [1], 0.718 ± 0.0076; (genetic background: wild type) 0.728 ± 0.036.
The corresponding values for ATSITSLGVKRA [AUR1 C-terminal 12 aa] are 0.702 ± 0.01 and 0.688 ± 0.026.
In the same order, the values of AVSVPRISSPMH [ICS3 C-terminal 12 aa] are 0.7029 ± 0.0038 and 0.73 ± 0.028.
For the sequence AWDIKQTLDSLA [CHO2 C-terminal 12 aa], the protein stability index under setting [1] turned out to be 0.709 ± 0.023 and the protein stability index (genetic background: wild type) came to 0.697 ± 0.038.
The corresponding values for AYTEVKAVRIKL [ALD6 C-terminal 12 aa] are 0.6745 ± 0.0043 and 0.69 ± 0.02.
In the same order, the values of CGVSWKSGVVKL [PXP2 C-terminal 12 aa] are 0.7093 ± 0.0022 and 0.716 ± 0.031.
Consider CLFGMAWLSTIL [YIP4 C-terminal 12 aa], for which the protein stability index came out at 0.661 ± 0.015 under setting [1] and 0.623 ± 0.0079 (genetic background: wild type).
In the same order, the values of CLILSCSWWILN [YJR020W C-terminal 12 aa] are 0.292 ± 0.0085 and 0.1518 ± 0.00025.
In the same order, the values of CLSDIAKVLRNQ [PBP4 C-terminal 12 aa] are 0.661 ± 0.0092 and 0.577 ± 0.015.
CPLCRSEIPFRR [RKR1 C-terminal 12 aa] displayed a protein stability index under setting [1] of 0.75 ± 0.028 and a protein stability index (genetic background: wild type) of 0.724 ± 0.039.
The corresponding values for CRESNLKLIVSG [ARR2 C-terminal 12 aa] are 0.6753 ± 0.002 and 0.712 ± 0.016.
The sequence CSGMKPISELQQ [RSM28 C-terminal 12 aa] returned a protein stability index under setting [1] of 0.695 ± 0.015 and a protein stability index (genetic background: wild type) of 0.682 ± 0.017.
The corresponding values for CSPVLFSLLNIA [LCB3 C-terminal 12 aa] are 0.699 ± 0.012 and 0.674 ± 0.087.
In the same order, the values of DAKFMMQASCSS [FMP40 C-terminal 12 aa] are 0.6897 ± 0.0051 and 0.682 ± 0.035.
Turning to DASVEQNILAVL [RQT4 C-terminal 12 aa], the protein stability index is, setting by setting: under setting [1], 0.70427 ± 0.00032; (genetic background: wild type) 0.6904 ± 0.0037.
Regarding DAVAEEVKKILA [LEU2 C-terminal 12 aa], the protein stability index came out at 0.689 ± 0.018 under setting [1] and 0.68 ± 0.0084 (genetic background: wild type).

Values taken from the supplement of paper PMC10724198.
